Data reported in US20240116985A1 (published 2024).
Starred links: 1 amine or outer side, 2 acyl side, 3 side chain; linkers in the order of their positions; H or OH if unused. Positions of bridges follow the written chain, without caps; N, C: chain ends. Non-standard residues stand in square brackets, D forms with d. Primed or numbered codes have the meaning given here. SeN″ = (S)-5-(((allyloxy)carbonyl)(methyl)amino)-2-amino-2-methylpentanoic acid (stapling residue), C=CCOC(=O)N(C)CCC[C@](C)(N[*:1])C(=O)[*:2]; B5(16) = 2-amino-2-(pent-4-en-1-yl)hept-6-enoic acid = 2,2-bis(4-pentenyl)glycine (stitching residue), C=CCCCC(CCCC=C)(N[*:1])C(=O)[*:2]; B5(23) = 2-amino-2-(pent-4-en-1-yl)hept-6-enoic acid (2,2-bis(4-pentenyl)glycine), stitching residue, C=CCCCC(CCCC=C)(N[*:1])C(=O)[*:2]; B5(4) = 2,2-bis(4-pentenyl)glycine = 2-amino-2-(pent-4-en-1-yl)hept-6-enoic acid (stitching residue), C=CCCCC(CCCC=C)(N[*:1])C(=O)[*:2]; B5″ = 2,2-bis(4-pentenyl)glycine, stitching residue, C=CCCCC(CCCC=C)(N[*:1])C(=O)[*:2]; Phe(3-F) = N[C@@H](Cc1cccc(F)c1)C(=O)O; His(τ-Me) = Cn1cnc(C[C@H](N)C(=O)O)c1; Bta = N[C@@H](Cc1csc2ccccc12)C(=O)O; αAllylPro = C=CC[C@@]1(C(=O)O)CCCN1; S8 = C=CCCCCCC[C@](C)(N)C(=O)O; NMeS = CN[C@@H](CO)C(=O)O

T1: B-cat-Halo (NanoBRET construct expressed in HEK293 cells) (UniProt P35222 1-781, HaloTag NanoBRET 618 Ligand bound in the assay)
T1 sequence (looked up): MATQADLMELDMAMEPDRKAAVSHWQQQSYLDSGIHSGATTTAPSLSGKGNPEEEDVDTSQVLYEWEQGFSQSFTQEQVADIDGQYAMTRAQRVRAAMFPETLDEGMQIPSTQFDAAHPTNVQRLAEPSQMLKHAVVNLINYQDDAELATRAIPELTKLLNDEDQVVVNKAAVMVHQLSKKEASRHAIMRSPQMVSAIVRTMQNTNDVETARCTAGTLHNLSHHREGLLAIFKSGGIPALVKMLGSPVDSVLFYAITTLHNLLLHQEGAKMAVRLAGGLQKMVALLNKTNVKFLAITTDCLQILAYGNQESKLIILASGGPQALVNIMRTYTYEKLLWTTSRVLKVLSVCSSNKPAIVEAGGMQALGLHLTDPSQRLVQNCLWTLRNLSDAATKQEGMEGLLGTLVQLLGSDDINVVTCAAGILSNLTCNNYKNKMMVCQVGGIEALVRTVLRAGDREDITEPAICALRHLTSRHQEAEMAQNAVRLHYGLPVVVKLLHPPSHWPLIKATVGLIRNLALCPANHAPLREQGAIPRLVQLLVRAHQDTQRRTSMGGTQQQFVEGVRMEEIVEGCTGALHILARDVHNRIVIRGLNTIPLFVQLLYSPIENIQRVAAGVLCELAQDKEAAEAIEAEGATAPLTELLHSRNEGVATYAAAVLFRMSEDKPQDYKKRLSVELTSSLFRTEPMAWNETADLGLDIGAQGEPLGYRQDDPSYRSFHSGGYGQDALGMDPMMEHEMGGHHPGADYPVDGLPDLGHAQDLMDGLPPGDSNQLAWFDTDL

T2: full-length beta-Catenin (Uniprot ID P35222) (Homo sapiens (Human), UniProt P35222 1-781)
T2 construct: also called bCat; B-Catenin
T2 sequence: T1 sequence (looked up)

T3: full-length beta-Catenin (Uniprot ID P35222) (Homo sapiens (Human), UniProt P35222 2-781)
T3 construct: also called bCat; B-Catenin
T3 sequence: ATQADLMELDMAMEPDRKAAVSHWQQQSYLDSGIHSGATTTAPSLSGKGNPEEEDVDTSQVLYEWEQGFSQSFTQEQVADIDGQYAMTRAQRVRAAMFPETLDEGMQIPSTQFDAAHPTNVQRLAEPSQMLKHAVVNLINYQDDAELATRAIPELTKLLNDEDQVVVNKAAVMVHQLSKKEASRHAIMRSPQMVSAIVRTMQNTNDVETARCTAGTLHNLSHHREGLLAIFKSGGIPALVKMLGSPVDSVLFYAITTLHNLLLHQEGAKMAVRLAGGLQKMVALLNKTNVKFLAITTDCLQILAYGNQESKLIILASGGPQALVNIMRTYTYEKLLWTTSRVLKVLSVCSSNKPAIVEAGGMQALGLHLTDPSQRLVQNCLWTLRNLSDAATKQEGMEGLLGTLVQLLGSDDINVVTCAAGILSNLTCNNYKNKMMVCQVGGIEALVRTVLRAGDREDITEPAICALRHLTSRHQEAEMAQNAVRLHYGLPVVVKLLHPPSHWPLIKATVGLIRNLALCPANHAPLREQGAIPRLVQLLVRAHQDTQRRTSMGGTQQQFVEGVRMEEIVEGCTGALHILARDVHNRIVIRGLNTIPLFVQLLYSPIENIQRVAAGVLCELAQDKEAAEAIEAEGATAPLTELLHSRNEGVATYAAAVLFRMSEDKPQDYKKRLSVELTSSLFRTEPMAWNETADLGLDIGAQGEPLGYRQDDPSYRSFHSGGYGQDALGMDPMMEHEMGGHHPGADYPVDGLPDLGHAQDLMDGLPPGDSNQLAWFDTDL

B1: I-751 (peptide)
peptide: Ac-[αAllylPro]DL[B5(4)]DEAAFN[S8]F[Bta]S-NH2
modifications: staple 1-4, 4-11; also: olefin E/Z not assigned, later-eluting staple isomer
notes: Stapled peptide; shares its description with I-750, later eluting HPLC peak (staple isomer composition); also called Ac-PL3-Asp-Leu-B5-Asp-Glu-Ala-Ala-Phe-Asn-S8-Phe-BztA-Ser-NH2
B2: I-753 (peptide)
peptide: Ac-[αAllylPro]DL[B5(4)]DEAAFN[S8]F[Bta]N-NH2
modifications: staple 1-4, 4-11; also: olefin E/Z not assigned, later-eluting staple isomer
notes: Stapled peptide; also called Ac-PL3-Asp-Leu-B5-Asp-Glu-Ala-Ala-Phe-Asn-S8-Phe-BztA-Asn-NH2
B3: I-752 (peptide)
peptide: Ac-[αAllylPro]DL[B5(4)]DEAAFN[S8]F[Bta]N-NH2
modifications: staple 1-4, 4-11; also: olefin E/Z not assigned, earlier-eluting staple isomer
notes: as for B2
B4: I-759 (peptide)
peptide: Ac-[αAllylPro]DL[B5(4)]DEAAFN[S8]F[Bta][NMeS]-NH2
modifications: staple 1-4, 4-11; also: earlier eluting HPLC peak (staple isomer)
notes: Stapled peptide; same description as I-760, earlier eluting HPLC peak (staple isomer composition); also called Ac-PL3-Asp-Leu-B5-Asp-Glu-Ala-Ala-Phe-Asn-S8-Phe-BztA-NMeS-NH2
B5: I-760 (peptide)
peptide: Ac-[αAllylPro]DL[B5″]DEAAFN[S8]F[Bta][NMeS]-NH2
modifications: staple 1-4, 4-11
notes: Stapled peptide; also called Ac-PL3-Asp-Leu-B5-Asp-Glu-Ala-Ala-Phe-Asn-S8-Phe-BztA-NMeS-NH2
B6: I-399 (peptide)
peptide: XDAXDHAAFQXFXQ
modifications: not fully specified; as printed: Ac-PL3-Asp-Ala-B5-Asp-His-Ala-Ala-Phe-Gln-S8-3FF-BztA-Gln-NH2; N-terminal acetyl, C-terminal amide; staples PL3(1)-B5(4) and B5(4)-S8(11) by olefin metathesis
notes: Stapled (stitched) peptide
B7: I-400 (peptide)
peptide: Ac-[αAllylPro]DA[B5(16)]DHAAFQ[SeN″][Phe(3-F)][Bta]Q-NH2
modifications: staple 1-4, 4-11; not fully specified; printed as Ac-PL3-Asp-Ala-B5-Asp-His-Ala-Ala-Phe-Gln-SeN-3FF-BztA-Gln-NH2
notes: Stapled (stitched) peptide
B8: I-398 (peptide)
peptide: Ac-[αAllylPro]DA[B5(16)]DHAAFV[SeN″][Phe(3-F)][Bta]Q-NH2
modifications: staple 1-4, 4-11; not fully specified; printed as Ac-PL3-Asp-Ala-B5-Asp-His-Ala-Ala-Phe-Val-SeN-3FF-BztA-Gln-NH2
notes: Stapled (stitched) peptide
B9: I-397 (peptide)
peptide: XDAXDHAAFVXFXQ
modifications: not fully specified; as printed: Ac-PL3-Asp-Ala-B5-Asp-His-Ala-Ala-Phe-Val-S8-3FF-BztA-Gln-NH2; N-terminal acetyl, C-terminal amide; staples PL3(1)-B5(4) and B5(4)-S8(11) by olefin metathesis
notes: Stapled (stitched) peptide

These binders were tested against T1, B-cat-Halo (NanoBRET construct …) (assay: cell-based or functional assay).
With B1 the “NanoBRET Abs IC50” value was 7100 nM. In the case of B2, the “NanoBRET Abs IC50” value is reported as 10000 nM. In the case of B3, the “NanoBRET Abs IC50” value is reported as 9900 nM.

The binders below were run against T2, full-length beta-Catenin (Uniprot ID …) (assay: fluorescence polarization competition; full-length beta-catenin with 5FAM-TCF4(10-53) probe as competitor).
Method in brief: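 Readings followed a light-protected 60-minute incubation at 20° C. Each read was done in duplicate. Curves were fit with a 1:1 binding model including hill slope, and stated concentrations are final.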
In the case of B4, the IC50 is reported as 1530 nM. In the case of B5, the IC50 is reported as 608 nM. B1 gave an IC50 of 29 nM. With B2 the IC50 was 14 nM. B3 was tested, and the IC50 was 16 nM.

The binders below were run against T3, full-length beta-Catenin (Uniprot ID …) (assay: fluorescence polarization competition; 10 nM full-length beta-catenin + 10 nM 5FAM-TCF4(10-53) probe, peptide titrated).
Procedure: The plate was incubated protected from light for 60 minutes at 20° C. prior to read. Reads were performed on a CLARIOstar plate reader (BMG Labtech) in duplicate, and data were fitted to a 1:1 binding model with hill slope using an in-house script. All provided concentrations are final concentrations.
Work on Ac-[αAllylPro]DA[B5(23)]DEAAFQ[S8]F[Bta]Q-NH2 (staple 1-4, 4-11, Stapled (stitched) peptide) [I-406] yielded an EC50 of 94 nM. Ac-[αAllylPro]DV[B5(23)]DEAAFQ[S8]F[Bta]Q-NH2 (staple 1-4, 4-11, Stapled (stitched) peptide) [I-410] gave an EC50 of 50 nM. Ac-[αAllylPro]DA[B5(23)]DEAAFT[S8]F[Bta]Q-NH2 (staple 1-4, 4-11, Stapled (stitched) peptide) [I-423] was tested, and the EC50 was 105 nM. B6 was tested, and the EC50 was 2500 nM. Binder B7 has an EC50 of 3590 nM. Ac-[αAllylPro]DA[B5(23)]DEAAFT[S8]F[Bta]H-NH2 (staple 1-4, 4-11, Stapled (stitched) peptide) [I-420] showed an EC50 of 128 nM. B8 was tested, and the EC50 was 2160 nM. Binder B9 has an EC50 of 2230 nM. Ac-[αAllylPro]DA[B5(23)]D[His(τ-Me)]AAFV[S8][Phe(3-F)][Bta]Q-NH2 (staple 1-4, 4-11, Stapled (stitched) peptide) [I-403] gave an EC50 of 2130 nM.
